Assay results: article PMC12014896 (2025)

B1: COVIC-294 (antibody, V domains shown)
VH: EVQLVESGGGLVQPGGSLRLSCAASGITVSSNYMNWVRQAPGKGLEWVSVIYSGGSTFYADSVKGRFTIARDNSKNTLYLQMNSLRAEDTAVYYCAREGLLVGPTGRGLGMDVWGQGTTVTVSS
VL: DIQMTQSPSSLSASVGDRVTITCQASQDINNYLNWYQQKPGKAPKLLIYDASNLQTGVPSRFSGSGSGTDFTFTISSLQPEDIATYYCQQYADLPYTFGQGTKLQIK
B2: COVIC-393 (antibody, V domains shown)
VH: EVQLVQSGGGLVQPGGSLKLSCAASGFTFSGSAMHWVRQASGKGLEWVGHIRSKANSYATAYAASVKGRFTISRDDSKNTAYLQMNSLNTEDTAVYYCTREDIVGVPVAKDWFDPWGQGTLVTVSS
VL: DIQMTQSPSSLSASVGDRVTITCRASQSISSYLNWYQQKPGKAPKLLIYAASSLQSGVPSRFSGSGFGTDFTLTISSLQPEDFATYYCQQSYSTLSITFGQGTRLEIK
B3: COVIC-262 (antibody, V domains shown)
VH: QVQLVQSGAEVKKPGSSVKVSCKASGGTSSSYAISWVRQAPGQGLEWIGGIIPIFDTTKYAQKFQGRVTITADESTNTAYMEVSSLRSEDTAVYYCAKVADRVGASTGELDYWGQGTLVTVSS
VL: EVVLTQSPATLSLSPGERGTLSCRASQSISNYLAWYQQKPGQAPRLLIYNASNRATGVPARFSGSGSGTDFTLTISSLEPEDFAVYYCQQRSNWPPWTFGQGTKVEIKR
B4: COVIC-369 (antibody, V domains shown)
VH: EVRLVESGGGLIQPGGSLTLSCAASGVIVSRNYMNWVRQAPGKGLEWVSVIYSGGSTFYADSVKGRFTISRDNSKNTLYLQMNSLRAEDTAVYYCARWGPNYYGSGSDHYNSYGMDVWGQGTTVTVSS
VL: EIVLTQSPGTLSLSPGESATLSCRASQGVSSSSLAWYQQRPGQAPRLLMYGASSRATGIPDRFSGSGSGTDFTLTISRLEPEDFAVYYCQQSGSSPQYTFGQGTKLEIKR
B5: COVIC-252 (antibody, V domains shown)
VH: EVQLLESGGGLIQPGGSLRLSCAASGFIVSSNYMSWVRQAPGKGLEWVSVIYSGGSTFYADSVKGRFTISRDNSNNTLYLQMNSLRAEDTAVYYCARDYGDFYFDYWGQGTLVTVSS
VL: DIQMTQSPSTLSVSPGERATLSCRASQSVSSNLAWYQQKPGQAPRLLIYGASTRATGIPVRFSGSGSGTESTLTISSLQSEDFAVYYCQQYNKWPRTFGQGTKVEIK
B6: COVIC-139 (antibody, V domains shown)
VH: EVQLVESGGGVVQPGRSLRLSCAASGFTFSSYGMHWVRQAPGKGLEWVAVISYDGSNKYYADSVKGRFTISRDNSKNTLYLQMNSLRAEDTAVYYCANGFGEYYYYAMDVWGQGTTVTVSS
VL: NFMLTQPHSVSESPGKTVTISCTGSSGSIASNYVQWYQRRPGSAPTTVIYEDNQRPSGVPDRFSASIDSSSNSASLTISGLKTEDEADYYCQSYDSSNWVFGGGTKLTVL
B7: COVIC-59 (antibody, V domains shown)
VH: QVQLQESGGGLVQAGGSLRLSCAASGRTFSEYAMGWFRQAPGKEREFVATISWSGGSTYYTDSVKGRFTISRDNAKNTVYLQMNSLKPDDTAVYYCAAAGLGTVVSEWDYDYDYWGQGTQVTVSS
B8: COVIC-55 (antibody, V domains shown)
VH: QVQLQESGGGLVQAGGSLRLSCAASGRTFSEYAMGWFRQAPGKEREFVATISWSGGSTYYTDSVKGRFTISRDNAKNTVYLQMNSLKPDDTAVYYCAAAGLGTVVSEWDYDYDYWGQGTQVTVSS
B9: COVIC-183 (antibody, V domains shown)
VH: EVHLVESGGGLVQPGGSLRLSCAASGFTFSDHYMDWVRQAPGKGLEWVGRTRNKANSYTTEYAASVKGRFTISRDDAKNSLYLQMNSLKTEDTAVYYCARVHRWAYCINGVCFGAYSDYWGQGTLVTVSS
VL: not shown
B10: COVIC-293 (antibody, V domains shown)
VH: QVTLRESGPALVKPTQTLTLTCTFSGFSLSTSGMCVSWIRQPPGKALQWLARIDWDDDKYYSTSLKTRLTISKDTSKNQVVLTVTNVDPVDTGTYYCARVQVAAAGSPYDYWGQGTLVTVSS
VL: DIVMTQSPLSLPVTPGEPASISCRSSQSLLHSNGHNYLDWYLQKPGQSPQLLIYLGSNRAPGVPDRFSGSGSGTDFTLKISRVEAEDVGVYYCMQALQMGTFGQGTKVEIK
B11: COVIC-136 (antibody, V domains shown)
VH: EVQLLESGGGLIQPGGSLRLSCAASGFTVSSNYMSWVRQAPGKGLEWVSVIYSGGSTYYADSVKGRFTISRDNSKNTLYLQMNSLRAEDTAVYYCARDHVRPGMNIWGQGTMVTVSS
VL: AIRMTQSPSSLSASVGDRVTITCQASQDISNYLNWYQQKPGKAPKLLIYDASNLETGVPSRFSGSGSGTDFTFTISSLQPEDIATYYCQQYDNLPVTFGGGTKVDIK
B12: COVIC-97 (antibody, V domains shown)
VH: EVQLVESGPEVKKPGTSVKVPCKASGFTFTSSAVQWVRQARGQRLEWIGWIVVGSGNTNYAQKFQERVTITRDMSTSTAYMELSSLRSEDTAVYYCAAPSCSGGRCYDGFDIWGQGTMVTVSS
VL: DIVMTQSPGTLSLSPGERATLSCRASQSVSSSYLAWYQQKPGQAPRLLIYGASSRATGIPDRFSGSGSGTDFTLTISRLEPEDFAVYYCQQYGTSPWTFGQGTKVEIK
B13: COVIC-141 (antibody, V domains shown)
VH: QVQLQESGPGLVKPSQTLSLTCTVSGGSISSGGYYWSWIRQHPGKGLEWIGYIYYSGNTYYNPSLKSRVTMSVDTSKNQFSLKLTSVTAADTAVYYCASTARPLTNAEYFQHWGQGTLVTVSS
VL: DIQLTQSPGTLSLSPGERATLSCRASQSVSSSYLAWYQQKPGQAPRLLIYGTSSRATGIPDRFSGSGSGTDFTLTISRLEPEDFAVYYCQQYRTFGQGTKVEIK
B14: COVIC-170 (antibody, V domains shown)
VH: EVQLVQSGAEVKKPGESLKISCKGSGYSFTSYWIGWVRQMPGKGLEWMGIIYPGDSDTRYSPSFQGQVTISADKSISTAYLQWSSLKASDTAMYYCVRSYNWNYFDYWGQGTLVTVSS
VL: AIQLTQSPSSLSASVGDRVTITCRASQGISSGLAWYQQKAGKAPKLLIYDVSSLESGVPSRFSGSGSGTDFTLTISSLQPEDFATYYCQQFLSYPWTFGQGTKVEIKR
B15: COVIC-366 (antibody, V domains shown)
VH: EVQLVESGGGLVQPGRSLRLSCAASGFSLDDYGMHWVRQAPGKGLEWVSGISWNSGDRGYADSVKGRFTISRDNAKNSLYLQMNSLRAEDTALYYCAKGSGAHYDIMTGARLDYWGQGTLVTVSS
VL: DIQMTQSPSSLSASVGDRVTITCRASQSITNYLNWYQQKPGKVPKLLIYAASILQSGVPSRFSGSGSGTDFTLTISSLQPEDFATYYCQQSYSTPWTFGQGTKVEIKR
B16: COVIC-79 (antibody, V domains shown)
VH: EVQLVESGGGLIQPGGSLRLSCAASGFIVSRNYMIWVRQAPGKGLEWVSVIYSGGSTFYADSVKGRFTISRDNSKNTLYLQMNSLRAEDTAVYYCARDLEVAGAIDYWGQGTLVTVSS
VL: EIVLTQSPGTLSLSPGERATLSCRASQSISSSYLAWYQQKPGQAPRLLIYGATSRATGTPDRFSGSGSGTDFTLTINRLEPEDFAVYYCQQYGSSPGYTFGQGTKLEIK
B17: COVIC-124 (antibody)
chain: QVQLQESGGGLVQAGGSLRLSCAASGRTFSEYAMGWFRQAPGKEREFVATISWSGGSTYYTDSVKGRFTISRDNAKNTVYLQMNSLKPDDTAVYYCAAAGLGTVVSEWDYDYDYWGQGTQVTVSSGGSGGSQVQLQESGGGLVQAGGSLRLSCAASGRTFSEYAMGWFRQAPGKEREFVATISWSGGSTYYTDSVKGRFTISRDNAKNTVYLQMNSLKPDDTAVYYCAAAGLGTVVSEWDYDYDYWGQGTQVTVSSGGGGSGGGGSEPKSCDKTHTCPPCPAPELLGGKKKPLDGEYFTLQIRGRERFEMFRELNEALELKDAQAGKEPGGGGGSGGGGSQVQLQESGGGLVQAGGSLRLSCAASGRTFSEYAMGWFRQAPGKEREFVATISWSGGSTYYTDSVKGRFTISRDNAKNTVYLQMNSLKPDDTAVYYCAAAGLGTVVSEWDYDYDYWGQGTQVTVSSGGSGGSQVQLQESGGGLVQAGGSLRLSCAASGRTFSEYAMGWFRQAPGKEREFVATISWSGGSTYYTDSVKGRFTISRDNAKNTVYLQMNSLKPDDTAVYYCAAAGLGTVVSEWDYDYDYWGQGTQVTVSS
B18: COVIC-134 (antibody, V domains shown)
VH: EVQLVESGGGVVQPGRSLRLSCAASGFTFSSYGMHWVRQAPGKGLEWVAVIWYDGSNKYYADSVKGRFTISRDNSKNTLYLQMNSLRAEDTAVYYCAKGPDILTGYYNYYYYGMDVWGQGTMVTVSS
VL: QSVLTQPPSVSGAPGQRVTISCTGSSSNIGAGYDVHWYQQLPGTAPKLLIYGNSNRPSGVPDRFSGSKSGTSASLAITGLQAEDEADYYCQSYDSSLSGFYVVFGGGTKLTVL
B19: COVIC-304 (antibody, V domains shown)
VH: QVQLQQWGAGLLKPSETLSLKCAVYGGSFSGYYWGWIRQSTGKGLEWIGEINRSGSTNYNPSLKSRVTISVDTSKNQFSLKLSSVTAADTAVYYCARGGARYYYGSGSYRSTPRPYYFDYWGQGTLVTVSS
VL: SYELTQPPSVSVAPGETARITCGGDNIGRRHVHWYQQKPGQAPVLVIYDDSDRPSGIPDRFSGSNSGNTATLTIGRVEAGDEADYYCQVWGSSNDPHVFGTGTKLTVLG
B20: COVIC-313 (antibody)
chain 1: QVQLVQSGAEVKKPGSSVKVSCKASGGTFGISWVRQAPGQGLEWMGRIIPILGTANHAQKFQGRVTITADKSTGTVYMELSSLRSEDTAVYYCARDGDSGSYYETLGFDYWGQGTLVTVSSASTKGPSVFPLAPEVQLVESGGGLVKPGGSLRLSCAASGFTFSPYSMNWVRQAPGKGLEWVSSISVSNIYTYYADSVKGRFTISRDNAKNSLYLQMNSLRAEDTAIYYCARDLKKGGIQYDAFDIWGQGTVVTVSS
chain 2: QSALTQPPSASGSPGQSVTISCTGTSSDVGGYNYVSWYQQHPGKAPKLMIYEVNKRPSGVPDRFSGSKSGNTASLTVSGLQAEDEADYYCSSYAGSNNLVFGGGTKLTVLQPKAAPSVTLFPPEIVLTQSPATLSLSPGERATLSCRASQSVNDYLAWYQQKPGQAPRLLIYDASNRATGFPARFSGSGSGTDFTLTISSLEPEDFAVYYCQQRSNWPPTFGQGTRLEIK
B21: COVIC-168 (antibody, V domains shown)
VH: EVQLVESGGGLIQPGGSLRLSCAASGVTVSSNYMNWVRQAPGKGLEGVSVIYSGGTTYYADSVKGRFTISRDNSKNTLYLQMNSLRAEDTAVYYCARDTVVYGMDVWGQGTTVTVSS
VL: DIQLTQSPSFLSASVGDRVTITCWASQGISSYLAWYQQKPGKAPKLLIYTASTLQSGVPSRFSGSGSGTEFTLTISSLQPEDFATYYCQQLNSYPLTFGGGTKVEIKR
B22: COVIC-151 (antibody, V domains shown)
VH: QVQLQESGPGLVKPSQTLSLTCTVSGGSISSYGYYWNWIRQHPGKGLEWIGYIYYSGSTYYNPSLKSRVTISVDTSKNQLSLRLNSVSAADTAVYYCARDFGGNSNYFDYWGQGTLVTVSS
VL: AIQLTQSPSSLSASVGDRVTITCRTSQGISSALAWYQQKPGKAPKLLIYDASSLESGVPSRFSGSGSGTDFTLTISSLQPEDFATYYCQQFNSYPLTFGGGTKVEIKR

Target: SARS-CoV-2 spike RBD (Wuhan-Hu-1) (Severe acute respiratory syndrome …, UniProt P0DTC2)
Experiment: SPR

Point of comparison: B16, Kd 0.745 nM. Against it:
- B1 — 13-fold lower, 0.0593 nM
- B2 — 3.2-fold lower, 0.233 nM
- B3 — 6.3-fold higher, 4.67 nM
- B4 — 3.6-fold lower, 0.209 nM
- B5 — 20-fold higher, 15.1 nM
- B6 — 60-fold higher, 44.6 nM
- B7 — 270-fold higher, 201 nM
- B8 — 150-fold higher, 115 nM
- B9 — 9.4-fold higher, 6.97 nM
- B10 — 1.7-fold lower, 0.429 nM
- B11 — 13-fold higher, 9.86 nM
- B12 — 6.7-fold higher, 4.96 nM
- B13 — 140-fold higher, 107 nM
- B14 — 1.6-fold higher, 1.16 nM
- B15 — 11-fold lower, 0.0703 nM
- B17 — 220-fold higher, 167 nM
- B18 — 120-fold higher, 90 nM
- B19 — 260-fold higher, 197 nM
- B20 — 4.8-fold lower, 0.155 nM
- B21 — 32-fold higher, 24.1 nM
- B22 — 8.5-fold higher, 6.31 nM
